In article PMC5865211, “The orphan GPR50 receptor promotes constitutive TGFβ receptor signaling and protects against cancer development” (Nature Communications, 2018):

B1: TβRI-Renilla luciferase 8 (Rluc8) fusion protein (receptor, UniProt P36897 34-503, looked up)
chain: LQCFCHLCTKDNFTCVTDGLCFVSVTETTDKVIHNSMCIAEIDLIPRDRPFVCAPSSKTGSVTTTYCCNQDHCNKIELPTTVKSSPGLGPVELAAVIAGPVCFVCISLMLMVYICHNRTVIHHRVPNEEDPSLDRPFISEGTTLKDLIYDMTTSGSGSGLPLLVQRTIARTIVLQESIGKGRFGEVWRGKWRGEEVAVKIFSSREERSWFREAEIYQTVMLRHENILGFIAADNKDNGTWTQLWLVSDYHEHGSLFDYLNRYTVTVEGMIKLALSTASGLAHLHMEIVGTQGKPAIAHRDLKSKNILVKKNGTCCIADLGLAVRHDSATDTIDIAPNHRVGTKRYMAPEVLDDSINMKHFESFKRADIYAMGLVFWEIARRCSIGGIHEDYQLPYYDLVPSDPSVEEMRKVVCEQKLRPNIPNRWQSCEALRVMAKIMRECWYANGAARLTALRIKKTLSQLSQQEGIKM
notes: TGFβ receptor type I; In the homomer BRET row the second copy of TβRI carried YFP (TβRI-YFP) instead of Rluc8; also called TβRI-Rluc8; source: HEK293T, transfected, in intact cells
B2: GPR50Δ4-YFP (receptor, human, UniProt Q13585 1-617, looked up)
chain: MGPTLAVPTPYGCIGCKLPQPEYPPALIIFMFCAMVITIVVDLIGNSMVILAVTKNKKLRNSGNIFVVSLSVADMLVAIYPYPLMLHAMSIGGWDLSQLQCQMVGFITGLSVVGSIFNIVAIAINRYCYICHSLQYERIFSVRNTCIYLVITWIMTVLAVLPNMYIGTIEYDPRTYTCIFNYLNNPVFTVTIVCIHFVLPLLIVGFCYVRIWTKVLAARDPAGQNPDNQLAEVRNFLTMFVIFLLFAVCWCPINVLTVLVAVSPKEMAGKIPNWLYLAAYFIAYFNSCLNAVIYGLLNENFRREYWTIFHAMRHPIIFFSGLISDIREMQEARTLARARAHARDQAREQDRAHACPAVEETPMNVRNVPLPGDAAAGHPDRASGHPKPHSRSSSAYRKSASTHHKSVFSHSKAASGHLKPVSGHSKPASGHPKSATVYPKPASVHFKADSVHFKGDSVHFKPDSVHFKPASSNPKPITGHHVSAGSHSKSAFSAATSHPKPIKPATSHAEPTTADYPKPATTSHPKPTAADNPELSASHCPEIPAIAHPVSDDSDLPESASSPAAGPTKPAASQLESDTIADLPDPTVVTTSTNDYHDVVVIDVEDDPDEMAV
notes: also called GPR50-YFP; source: HEK293T, transfected, in intact cells
B3: TβRII-YFP (receptor, UniProt P37173 23-567, looked up)
chain: TIPPHVQKSVNNDMIVTDNNGAVKFPQLCKFCDVRFSTCDNQKSCMSNCSITSICEKPQEVCVAVWRKNDENITLETVCHDPKLPYHDFILEDAASPKCIMKEKKKPGETFFMCSCSSDECNDNIIFSEEYNTSNPDLLLVIFQVTGISLLPPLGVAISVIIIFYCYRVNRQQKLSSTWETGKTRKLMEFSEHCAIILEDDRSDISSTCANNINHNTELLPIELDTLVGKGRFAEVYKAKLKQNTSEQFETVAVKIFPYEEYASWKTEKDIFSDINLKHENILQFLTAEERKTELGKQYWLITAFHAKGNLQEYLTRHVISWEDLRKLGSSLARGIAHLHSDHTPCGRPKMPIVHRDLKSSNILVKNDLTCCLCDFGLSLRLDPTLSVDDLANSGQVGTARYMAPEVLESRMNLENVESFKQTDVYSMALVLWEMTSRCNAVGEVKDYEPPFGSKVREHPCVESMKDNVLRDRGRPEIPSFWLNHQGIQMVCETLTECWDHDPEARLTAQCVAERFSELEHLDRLSGRSCSEEKIPEDGSLNTTK
notes: TGFβ receptor type II; also called TβRII-yellow fluorescent protein fusion; source: HEK293T, transfected, in intact cells

Tests used:
[1] = target: the molecule itself; test: FRET or BRET; BRET donor saturation in intact HEK293T cells; fixed amount of TβRI-Rluc8, increasing amounts of YFP fusion; no TGFβ
[2] = target: B1; test: as above; conditions: partners not purified

Binder | BRET50 [1] | BRET50 [2]
B1 | 1.34 ± 0.185 | –
B2 | – | 0.031 ± 0.01
B3 | – | 0.046 ± 0.008
